Results reported in PMC8635976, “Ca^2+/CaM binding to CaMKI promotes IMA-3 importin binding and nuclear translocation in sensory neurons to control behavioral adaptation” (eLife, 2021).
Residue numbers refer to the chain shown, from its start. In names and notes the source's numbering stands.

What was measured:
Conditions in all cases: both partners purified
[1] = target: T1, IMA-3-His6 (IMA-3 importin-α) (C. elegans, UniProt Q19969 1-514, labeled using the RED-tris-NTA His tag protein labeling kit); assay: MST; Monolith NT.115; RED-tris-NTA labeled IMA-3-His6 at 100 nM, serial dilution of unlabeled CMK-1 in 1x PBS with 0.05% Tween 20; 40% laser power; with 2 mM CaCl2 and 8 µM CaM; triplicates
T1 construct: IMA-3, importin-α of C. elegans; also called HisTag::IMA-3; source: E. coli BL21 (DE3), purified (Ni-NTA, desalting spin column)
T1 sequence (looked up): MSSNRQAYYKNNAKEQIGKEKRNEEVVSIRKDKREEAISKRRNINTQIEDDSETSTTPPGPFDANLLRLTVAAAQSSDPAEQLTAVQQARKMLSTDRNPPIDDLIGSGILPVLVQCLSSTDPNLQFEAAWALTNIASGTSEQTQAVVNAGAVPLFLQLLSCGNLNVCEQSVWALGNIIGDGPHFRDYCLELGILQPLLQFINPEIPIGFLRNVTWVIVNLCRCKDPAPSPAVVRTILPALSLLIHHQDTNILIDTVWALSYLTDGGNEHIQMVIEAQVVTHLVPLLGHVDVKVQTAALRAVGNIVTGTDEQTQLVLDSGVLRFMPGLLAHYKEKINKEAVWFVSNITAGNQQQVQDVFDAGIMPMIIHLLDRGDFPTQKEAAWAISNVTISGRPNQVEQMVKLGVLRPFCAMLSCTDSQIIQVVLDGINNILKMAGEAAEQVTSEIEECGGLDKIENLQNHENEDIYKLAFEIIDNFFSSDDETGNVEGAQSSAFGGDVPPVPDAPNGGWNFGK

[2] = target: T1, IMA-3-His6 (IMA-3 importin-α); assay: MST; Monolith NT.115; RED-tris-NTA labeled IMA-3-His6 at 100 nM, serial dilution of unlabeled CMK-1 in 1x PBS with 0.05% Tween 20; 40% laser power; with 2 mM Ca2+, no CaM
[3] = target: T1, IMA-3-His6 (IMA-3 importin-α); assay: MST; Monolith NT.115; RED-tris-NTA labeled IMA-3-His6 at 100 nM, serial dilution of unlabeled CMK-1 in 1x PBS with 0.05% Tween 20; 40% laser power; no Ca2+, no CaM; triplicates

B1: CMK-1(wt), calcium/calmodulin-dependent protein kinase-1 (enzyme, C. elegans, UniProt Q9TXJ0 1-348, looked up)
chain: MPLFKRRDGSGPAPNATIREKYDFRDVLGTGAFSKVFLAESKSDAGQMYAVKCIDKKALKGKEESLENEIKVLRKLRHNNIVQLFDTYDEKQFVYLVMELVTGGELFDRIVAKGSYTEQDASNLIRQVLEAVGFMHDNGVVHRDLKPENLLYYNQDEDSKIMISDFGLSKTEDSGVMATACGTPGYVAPEVLQQKPYGKAVDVWSIGVIAYILLCGYPPFYDESDANLFAQIIKGEYEFDAPYWDQISDSAKDFITHLMCCDPEARFTCQDALSHPWISGNTAYTHDIHGTVAVHLKKSLAKRNWKKAYNAAAAIRQLQMLRLSSNSNRLQKQASQQQPEPPTPAFHA
notes: CMK-1 of C. elegans, ortholog of mammalian CaMKI/IV; cmk-1 cds inserted in pDK2409 (plasmid dg922 [cmk-1(wt)::GST-TEV]); TEV cleavage removes the GST tag to recover untagged CMK-1; also called CaMKI; source: E. coli BL21 (DE3), purified (Glutathione beads, eluted by TEV cleavage)
In the case of B1, the Kd [1] is reported as 450 nM, the Kd [2] is reported as 1140 nM and the Kd [3] is reported as 1540 nM.

B2: CMK-1(K71A/R74Q/R77S) (enzyme, C. elegans, UniProt Q9TXJ0 1-348, looked up)
chain: B1 chain with K71A, R74Q, R77S
notes: CMK-1 of C. elegans with three point mutations in the NLS 71-78; plasmid dg929 [cmk-1(K71A/R74Q/R77S)::GST-TEV] made by site-directed mutagenesis from dg922; TEV cleavage removes the GST tag; also called NLS71-78 mutant CMK-1; CMK-1 (K71A/R74Q/R77S) triple mutant; source: E. coli BL21 (DE3), purified (Glutathione beads, eluted by TEV cleavage)
B2 showed a Kd [1] of 1000 nM and a Kd [3] of 1220 nM.
